Columns and labels:
[1] = molecular target: TRCF-β (β domain of Thermus thermophilus HB8 transcription-repair coupling factor, His-tagged) (Thermus thermophilus HB8); assay: SPR (BIAcore), His-tagged β domain immobilised on Ni-NTA sensor chip, UvrA injected, with ATP (+ ATP)
[2] = molecular target: TRCF-β (β domain of Thermus thermophilus HB8 transcription-repair coupling factor, His-tagged) (Thermus thermophilus HB8); assay: SPR (BIAcore), His-tagged β domain immobilised on Ni-NTA sensor chip, UvrA injected, without ATP (- ATP)
[3] = molecular target: UvrA; assay: SPR (BIAcore), His-tagged β domain immobilised on Ni-NTA sensor chip, UvrA in solution, with ATP
Sequence of UvrA (Q56242 whole entry): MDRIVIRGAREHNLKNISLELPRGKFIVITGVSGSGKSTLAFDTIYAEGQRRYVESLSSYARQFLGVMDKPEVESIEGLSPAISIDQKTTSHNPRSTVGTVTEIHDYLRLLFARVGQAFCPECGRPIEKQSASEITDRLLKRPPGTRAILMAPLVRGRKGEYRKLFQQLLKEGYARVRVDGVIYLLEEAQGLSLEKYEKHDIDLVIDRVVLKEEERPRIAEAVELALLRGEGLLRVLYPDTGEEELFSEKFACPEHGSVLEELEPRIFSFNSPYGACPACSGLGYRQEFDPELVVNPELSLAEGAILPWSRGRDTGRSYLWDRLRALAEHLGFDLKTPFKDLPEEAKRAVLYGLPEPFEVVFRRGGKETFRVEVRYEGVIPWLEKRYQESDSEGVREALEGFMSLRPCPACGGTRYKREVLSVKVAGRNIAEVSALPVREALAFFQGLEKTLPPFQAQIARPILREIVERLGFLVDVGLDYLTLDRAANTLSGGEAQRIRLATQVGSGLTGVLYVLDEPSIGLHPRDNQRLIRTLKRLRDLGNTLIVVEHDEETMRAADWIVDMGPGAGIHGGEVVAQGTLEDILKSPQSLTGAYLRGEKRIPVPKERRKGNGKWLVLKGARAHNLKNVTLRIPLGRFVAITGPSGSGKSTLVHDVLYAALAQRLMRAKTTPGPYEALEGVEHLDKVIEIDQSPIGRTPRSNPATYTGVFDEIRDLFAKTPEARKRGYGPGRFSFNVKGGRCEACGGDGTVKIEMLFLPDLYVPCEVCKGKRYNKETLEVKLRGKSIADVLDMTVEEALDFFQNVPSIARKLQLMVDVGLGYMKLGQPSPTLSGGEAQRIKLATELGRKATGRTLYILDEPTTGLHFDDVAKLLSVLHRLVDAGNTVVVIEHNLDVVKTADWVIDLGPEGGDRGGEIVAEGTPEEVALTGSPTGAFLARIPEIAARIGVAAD

[4] = molecular target: UvrA; assay: SPR (BIAcore), His-tagged β domain immobilised on Ni-NTA sensor chip, UvrA in solution, without ATP

Sequence of UvrA (enzyme) (Q56242 whole entry): as above

| koff [1] | kon [1] | koff [2] | kon [2] | Kd [3] | Kd [4] | Substance |
| --- | --- | --- | --- | --- | --- | --- |
| 0.07 s⁻¹ | 150000 M⁻¹ s⁻¹ | 0.13 s⁻¹ | 100000 M⁻¹ s⁻¹ | – | – | UvrA (enzyme) |
| – | – | – | – | 500 nM | 1300 nM | TRCF-β (β domain of Thermus thermophilus HB8 transcription-repair coupling factor, His-tagged) (enzyme) |
